B1: TPR t1 (parent)
chain: GACCAAUCUGCCCUCAGAGCUCGAGAACAUCUUCGGAUGCAGAGGAGGCAGGCUUCGGUGGCGCGAUAGCGCCAACGUCCUCAACCUCCAAUGCAUCCCACCACAUGAUGAUGCCUGAAGAGCCUUGGUUUUUUG

Variants of: B1
Experiment: polymerase ribozyme fitness, log enrichment relative to wild type (log ratio); higher = more active; in vitro selection for triplet polymerase activity
Method in brief: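 Fitness measures genotype enrichment against wild-type enrichment on a logarithmic scale, with inverse-variance-weighted averaging of replicates. The logarithm is base 2, and genotypes were kept only with ≥10 input reads and ≥1 read per output in Illumina sequencing. The sequenced libraries came from one triplicate in vitro selection round, including frozen incubation at −7 °C, of PCR-built, transcribed mutant libraries of each subunit of a heterodimeric triplet polymerase ribozyme.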

Variant	polymerase ribozyme fitness (log ratio)
G44A C64U	-1.11
G42U A95G	-0.388
A43G C114G G135U	-3.37
A43G G57U C88A C104A G120U	-5.76
A41U G69C	-4.05
G42U G45C A50G C82U A121G	0.685
G44A A46U C85U C86G	-4.71
A43U C86U	-2.52
G42U G63U	-3.48
A43C U112G U126G G128U	-3.02
G44A G120U	-1.14
G44A G120C	0.014
G42C	-1.3
G42U	-1.31
G42A	-1.69
G42U C73U G117A	-3.05
G42A G69U C76A A121U	-3.23
G42U C56U C72U C85G G110U	-5.53
G42A C79G G113A	-4.19
G42A G61C U133A	-5.31
G42U C64U	-1.54
G42A G71U A119U	-2.99
G42A U55C	-2.24
G44A G71C	-2.21

Variant	polymerase ribozyme fitness (log ratio)
G42A G71U	-2.41
G42C G61A C82U U116A	-4.34
G42U G45C C76U	-2.43
A43G C56U U109A G117U	-5.89
A43C C101G A121U	-2.62
G42A C82U	-1.95
A43C U55G G61C C79U C97U U116G	-5.31
A43U G58U U126G	-3.62
G42A G45C G69U C123U	-0.482
G44A G48C C56A	-1.29
A43C C70U	-3.69
A41U G45A U55C G71A	-3
A43U G120C	-0.477
G42C G61U	-1.04
A43U G69U A91C	0.416
A43U G48U G61A	-1.54
G42A A50U C101U	-4.32
G42A G128C	-4.63
G44A G57A A91G C101G G113U	-4.86
A43U C94A	-1.82
A41U G57A G77A	-1.68
G44A G60C	0.513
A41U G71C G117U	-5.03
A43U C70A	-3.22

Variant	polymerase ribozyme fitness (log ratio)
A43C C82A	-2.48
A41U G60U U78A A95G U126A	-4.53
G42U U78C C94G A100C	-4.78
G42U C73A G127A	-2.84
G42A G63U	-3.48
G42A G117A	-2.65
G42C G44U C64G G113U	-5.99
G42U G110U	-3.71
G42U C56G C73U G110A	-4.56
A43U C80U C99U G120C	-6.23
A43G C101U	-1.47
A43C C64U	-1.64
A43U G57C C98U U126A	-4.59
A41U G52A U59C A108G C114G U125G	-5.99
G42A C62U	-2.15
A43U A111U	-4.27
G42A A111G G113C A121C	-0.948
A41U G77A U116C U129C	-3.98
A43U C56G G71U G120A	-4.58
G44A C72G C80U C101U	-2.59
G42A A43U G52A C73U U133C	-1.65
G42C C64A	-7.59
A43U C56A C85G U133A	-4.39
G42A G69U	-0.125

Variant	polymerase ribozyme fitness (log ratio)
A43G C115A G135C	-3.27
A43C G45U	-3.71
A43G C62U C72A G113C	-2.93
G42C G48A C72G G120A	-1.67
G42U G48A G110C A111G	-6.19
G42A G44U C70U C76U	-4.28
G42U G57U	-1.5
A41U G42C A95C	-4.1
A43U C53U G77U C85G U106A	-5.13
G44A C82G	-1.66
A41U G65U	-6
A43C G44U G113A	-3.01
G42C G57A	-3.88
A43G C56U	-1.77
G44A G52A C56U	-1.35
G42U A74C G117U	-4.16
G42U G60A	-2.16
G42A A91C C123U U131A	-1.71
A43U U54A C73U G77C	-1.92
G42U C73A C99U	-6.29
A43G G44C A46U G63C G120A	-5.64
G42U A43C G60A C89A	-2.03
G44A C49A C85G C94A	-3.35
G42A G60U G69U	-6.05

Variant	polymerase ribozyme fitness (log ratio)
G42A U96A	-2.83
A43U G45A C53U C56G A84U	-2.19
A41U C124G U129A	-0.389
A43U G63C U78C	-3.61
G44A A46U G47C A74G G93A	-3.83
G44A G60U C72U A90U	-1.55
G44A A46U A91G U92A	-5.83
G42C C56U G69U G93A G120C U131G	-3.67
A43U U131A	-1.44
G42C G69C C86A G117C	-6.61
G44A C98A A111U	-5.83
A43G C62U C73U A84C U92A A118U U132C G135C	-2.69
G44A C94U U126G	-2.82
G42U A66U	-2.91
A43U C102A C114A	-5.12
A41U G60U	-1.91
G44A U55A C70A	-3.95
G44A C89U C104A U106A	-2.1
A43G C72U U112C G122U	-0.894
A43C A46U	-2.91
G42A C70A C88G	-6.71
A43G C85G	-2.89
A43U G71U U116C G128C	-5.7
A43U C104A A118U	-4.29

Variant	polymerase ribozyme fitness (log ratio)
G42A C53U G63U	-3.99
A43C U54A	-2.54
G44A C94U	-0.754
G42A C70A A84U U92C U96A C102G C124G	-6.77
G42U C53U G60U G110U	-3.64
G44A C70U C89A A100U U133C	-3.92
G42C G58A G120U	-1.82
G44C A50C G60U	-1.12
A43U A50G C72A G93C A95C C115U	-4.47
G42A U78A U87C C114U	-2.27
A43G C56G C82A A84C C114U	-3.15
A43U G120C C124U	-0.575
A41U G61A C102A U133G	-3.96
G42U G45C C70U A83G	-5.2
G44C A46G	-0.686
G42A C64U C115A A119U	-3.76
A43C U129G	-3.27
A43G U109A	-6.81
G42A U81A	-4.25
A43U U129G	-2.71
G42A A50U C73A C123U	-2.52
G44A G71C C89U	-1.03
A43C G61U	-2.24
A43C G61C	-5.34

Variant	polymerase ribozyme fitness (log ratio)
A43G G51C C72U U78G C79A U112A	-5.74
A43U U59A U134G	-1.56
G44A G69C	-2.21
G42A A83U	-2.65
A43C A46C C62U U87A C101U	-2.85
G42A C64U U109A	-6.32
A41U G61A	-1.07
G42C G60C G77C U78A U130G G135C	-3.55
G44A G61U	-0.0446
G44A C124A	0.456
A41U U96G	-2.51
A43U G60U C64G C73G C85U C98G C115U	-6.57
G42C A91G U112A	-0.613
A43C G71U C88A C123U	-3.41
G44A C49U A50C U78C U133G G135U	-1.75
A41U G52C C124U U131C G135U	-1.81
A41U G45C C53G C79U C97U	-6.18
G42C G44C C56U C104U	-0.811
A43U G44A C115A C124A U125C U132A	0.582
G42A G48C C56G C86U C101G	-4.3
A43G A84U	-1.9
G42C G44C U81C G120A	-2.45
A43G U133A	-1.57

From the RNAGym collection of RNA variant scans (doi:10.1073/pnas.2313332121)
